In patent publication US6972324 (Boehringer Ingelheim, dated 2005):
Residue numbers refer to the chain shown, from its start. One block for each molecule: values may come before it.

What was measured:
[1] = target: CD44v6 on human tumour cells (human) (UniProt P16070); assay: immunoreactivity assay, 125I-labelled IgG on glutaraldehyde-fixed UM-SCC-11B cells, experiment 2
[2] = target: CD44v6 on human tumour cells (human) (UniProt P16070); assay: immunoreactivity assay, 186Re-MAG3-labelled MAb on fixed UM-SCC-11B cells
[3] = target: glutathione-S-transferase fusion protein containing domains v3-v10 of human CD44 (human) (UniProt P16070); assay: SPR (BIAcore 2000), GST/CD44v3-v10 immobilized on CM5 chip, MAb injected at 8-67 nM
[4] = target: CD44v6 on human tumour cells (human) (UniProt P16070); assay: competitive cell ELISA on fixed A431 cells against mMAb BIWA 1; IC50 relative to BIWA 2
[5] = target: CD44v6 on human tumour cells (human) (UniProt P16070); assay: immunoreactivity assay, 125I-labelled IgG on fixed UM-SCC-11B cells, linear extrapolation to infinite antigen excess, experiment 2
[6] = target: glutathione-S-transferase fusion protein containing domains v3-v10 of human CD44 (human) (UniProt P16070); assay: SPR (BIAcore 2000), GST/CD44v3-v10 immobilized on CM5 chip
[7] = target: CD44v6 on human tumour cells (human) (UniProt P16070); assay: immunoreactivity assay, 131I-labelled IgG on fixed UM-SCC-11B cells, linear extrapolation to infinite antigen excess, experiment 1
[8] = target: CD44v6 on human tumour cells (human) (UniProt P16070); assay: immunoreactivity assay, 131I-labelled IgG on glutaraldehyde-fixed UM-SCC-11B cells, experiment 1
[9] = target: T1, glutathione-S-transferase fusion protein containing domains v3-v10 of human CD44 (human, UniProt P16070 267-604); assay: ratio of affinities (SPR on GST/CD44v3-v10, Table 1)
T1 construct: also called GST/CD44v3-v10; recombinant antigen; not shown: glutathione-S-transferase (GST) fusion partner
T1 sequence (looked up): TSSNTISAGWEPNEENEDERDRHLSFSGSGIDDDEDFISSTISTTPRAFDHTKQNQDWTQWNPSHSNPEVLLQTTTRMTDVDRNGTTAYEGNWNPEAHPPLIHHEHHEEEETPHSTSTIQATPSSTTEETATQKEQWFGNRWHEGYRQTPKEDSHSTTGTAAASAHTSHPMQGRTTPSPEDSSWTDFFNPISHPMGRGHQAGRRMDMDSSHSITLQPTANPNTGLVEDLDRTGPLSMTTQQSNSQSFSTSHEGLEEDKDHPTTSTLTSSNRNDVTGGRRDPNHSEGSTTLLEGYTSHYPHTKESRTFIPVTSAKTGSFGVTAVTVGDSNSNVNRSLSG

[10] = target: T1, glutathione-S-transferase fusion …; assay: SPR (BIAcore 2000), GST/CD44v3-v10 immobilized on CM5 chip
Procedure: (§1) Evaluation of antibody affinity. Measurement of kinetic and affinity constants using recombinant antigen was performed on a BIAcore 2000 system (BIAcore AB, Uppsala, Sweden). A glutathione-S-transferase fusion protein containing domains v3–v10 of human CD44 (GST/CD44v3–v10; 20 μg/ml) was immobilized on a CM5 sensor chip by the amine coupling method according to the manufacturer's instructions, using 10 mM sodium acetate pH 5.0 as coupling buffer. 35 μl of MAb at various concentrations (8–67 nM) in HBS (10 mM HEPES, pH 7.4, 150 mM NaCl, 3.4 mM EDTA, 0.05% BLAcore surfactant P20) were injected over the antigen-coated surface at a flow rate of 5 μL/min. Dissociation of the MAb was assessed for 5 minutes in buffer flow (HBS). Between two analyses, the surface of the chip was regenerated with a single pulse of 15 μl 30 mM HCl. Analysis of the data and calculation of the kinetic constants were performed with BIAcore's BIAevaluation software, version 2.1. Association rates (k_a), dissociation rates (k_d), and dissociation constants (K_d) were assessed for all antibodies.
(§2) In vitro binding characteristics of the CD44v6specific MAbs. The binding affinities of the five MAbs were analyzed using recombinant antigen as well as human tumor cell lines. Kinetic and affinity constants were evaluated by surface plasmon resonance using GST/CD44v3–v10 as immobilized antigen.

[11] = target: CD44v6 on human tumour cells (human) (UniProt P16070); assay: competitive cell ELISA on fixed A431 cells; inhibition of binding of mMAb BIWA 1, detected with peroxidase-conjugated anti-mouse Fc; unit taken from the concentration axis
[12] = target: CD44v6 on human tumour cells (human) (UniProt P16070); assay: immunoreactivity assay of clinical 99mTc-/186Re-MAG3-labelled BIWA 4 batches on fixed UM-SCC 11B cells
[13] = target: T1, glutathione-S-transferase fusion …; assay: SPR (BIAcore 2000), GST/CD44v3-v10 immobilized on CM5 chip, MAb injected at 8-67 nM
Procedure: as §1, §2

[14] = target: CD44v6 on human tumour cells (human) (UniProt P16070); assay: immunoreactivity assay, 131I-labelled IgG on fixed UM-SCC-11B cells, linear extrapolation to infinite antigen excess, experiment 2
[15] = target: CD44v6 on human tumour cells (human) (UniProt P16070); assay: immunoreactivity assay, 131I-labelled IgG on glutaraldehyde-fixed UM-SCC-11B cells, experiment 2
[16] = target: CD44v6 on human tumour cells (human) (UniProt P16070); assay: immunoreactivity assay, 131I-labelled IgG on glutaraldehyde-fixed UM-SCC-11B cells, experiment 3
[17] = target: CD44v6 on human tumour cells (human) (UniProt P16070); assay: immunoreactivity assay, 131I-labelled IgG on fixed UM-SCC-11B cells, linear extrapolation to infinite antigen excess, experiment 3
[18] = target: CD44v6 on human tumour cells (human) (UniProt P16070); assay: immunoreactivity assay, 125I-labelled IgG on fixed UM-SCC-11B cells, linear extrapolation to infinite antigen excess, experiment 3
[19] = target: CD44v6 on human tumour cells (human) (UniProt P16070); assay: immunoreactivity assay, 125I-labelled IgG on glutaraldehyde-fixed UM-SCC-11B cells, experiment 3

Binding to 5 × 10^6 cells (%) [1]: 80.5%
immunoreactive fraction [2]: 75%
Kd [3]: 0.24 nM
koff [3]: 4.1e-05 s⁻¹
kon [3]: 170000 M⁻¹ s⁻¹
relative IC50 values [4]: 1
Binding Extrapolated (%) (immunoreactive fraction) [5]: 79.9%
Kd relative to murine BIWA 1 [6]: 0.7 fold
Molecule: cMAb BIWA 2 (antibody)

immunoreactive fraction [2]: 75%
Kd [3]: 11 nM
koff [3]: 0.00017 s⁻¹
kon [3]: 15000 M⁻¹ s⁻¹
Binding Extrapolated (%) (immunoreactive fraction) [7]: 87.4%
Kd relative to murine BIWA 1 [6]: 35 fold
Binding to 5 × 10^6 cells (%) [8]: 59.7%
Molecule: mMAb U36 (antibody)

fold lower affinity than cMAb BIWA 2 [9]: 14 fold
fold lower affinity than hMAb BIWA 8 [9]: 4 fold
Kd relative to murine BIWA 1 [10]: 10.5 fold
immunoreactive fraction [2]: 75%
IC50 [11]: 8.01 µg/mL
relative IC50 values [4]: 44
immunoreactive fraction [12]: 80%
Kd [13]: 3.4 nM
koff [13]: 0.00022 s⁻¹
kon [13]: 65000 M⁻¹ s⁻¹
Binding Extrapolated (%) (immunoreactive fraction) [14]: 82.3%
Binding to 5 × 10^6 cells (%) [15]: 77.4%
Binding to 5 × 10^6 cells (%) [16]: 77.3%
Binding Extrapolated (%) (immunoreactive fraction) [17]: 74.5%
B1: hMAb BIWA 4 (antibody, human IgG1, kappa, V domains shown)
VH: EVQLVESGGGLVKPGGSLRLSCAASGFTFSSYDMSWVRQAPGKGLEWVSTISSGGSYTYYLDSIKGRFTISRDNAKNSLYLQMNSLRAEDTAVYYCARQGLDYWGRGTLVTVSS
VL: EIVLTQSPATLSLSPGERATLSCSASSSINYIYWYQQKPGQAPRLLIYLTSNLASGVPARFSGSGSGTDFTLTISSLEPEDFAVYYCLQWSSNPLTFGGGTKVEIKR
notes: CDR-grafted humanised version of BIWA 1 without murine framework residues; human IgG1/kappa; in the clinical study as 99mTc- or 186Re-MAG3 conjugate; also called Humanized BIWA 4; bivatuzumab

Binding Extrapolated (%) (immunoreactive fraction) [18]: 92.1%
Kd relative to murine BIWA 1 [10]: 2.6 fold
immunoreactive fraction [2]: 75%
IC50 [11]: 0.335 µg/mL
relative IC50 values [4]: 2
Kd [13]: 0.84 nM
koff [13]: 6.3e-05 s⁻¹
kon [13]: 75000 M⁻¹ s⁻¹
Binding to 5 × 10^6 cells (%) [19]: 91.8%
B2: hMAb BIWA 8 (antibody, human IgG1, kappa, V domains shown)
VH: B1 VH
VL: B1 VL with Y35L, L45I
notes: CDR-grafted humanised version of BIWA 1 with two murine residues in light chain framework 2; human IgG1/kappa; also called Humanized BIWA 8
